Experiments:
[1] = target: feline FAP in formalin fixed, paraffin embedded feline tissue sections (feline); assay: immunohistochemistry on a formalin fixed, paraffin embedded kidney section of cat #20-01692 with a low level of fibrosis (fibrosis score 1)
[2] = target: feline FAP in formalin fixed, paraffin embedded feline tissue sections (feline); assay: immunohistochemistry on a formalin fixed, paraffin embedded kidney section of cat #20-10270 without fibrosis (fibrosis score 0); the score tells that no FAP was detected in this tissue, not that the antibody fails to bind FAP
[3] = target: feline FAP in formalin fixed, paraffin embedded feline tissue sections (feline); assay: immunohistochemistry on a formalin fixed, paraffin embedded kidney section of cat #20-00774 with a higher level of fibrosis (fibrosis score 3)
[4] = target: feline FAP in formalin fixed, paraffin embedded feline tissue sections (feline); assay: immunohistochemistry on a formalin fixed, paraffin embedded kidney section of cat #20-06613 with a higher level of fibrosis (fibrosis score 3)

FAP score (0-3) [1]: 1 | FAP score (0-3) [2]: 0 | FAP score (0-3) [3]: 2 | FAP score (0-3) [4]: 2
Substance: cross-reactive anti-FAP monoclonal antibody ab207178 from abcam

Source: patent US20250002998A1
